# B1: Bacterially expressed and purified KinI-3 protein (protein)
# chain: DCDIPIIQRISHVSGYNYGIPHSCIRQNTSEKQNPWTEMEKIRVCVRKRPLGMREVRRGEINIITVEDKETLLVHEKKEAVDLTQYILQHVFYFDEVFGEACTNQDVYMKTTHPLIQHIFNGGNATCFAYGQTGAGKTYTMIGTHENPGLYALAAKDIFRQLEVSQPRKHLFVWISFYEIYCGQLYDLLNRRKRLFAREDSKHMVQIVGLQELQVDSVELLLEVILKGSKERSTGATGVNADSSRSHAVIQIQIKDSAKRTFGRISFIDLAGSERAADARDSDRQTKMEGAEINQSLLALKECIRALDQEHTHTPFRQSKLTQVLKDSFIGNAKTCMIANISPSHVATEHTLNTLRYADRVKEL
# Biological target: microtubules
protein,measurement,value
B1,"microtubule depolymerization (tubulin in supernatant after centrifugation, SDS-PAGE), AL + ATP/MT",Track 3 shows an increase in tubulin in the supernatant that indicates depolymerization in the presence of ATP
same,"microtubule depolymerization (tubulin in supernatant), AL + MT + ADP",No depolymerization was observed ... in the presence of ADP (track 6)
same,"microtubule depolymerization (tubulin in supernatant), AL + MT/AMPPNP",No depolymerization was observed ... in the presence of AMP-PNP (track 5)
same,"microtubule depolymerization (tubulin in supernatant), AL treated by Apyrase + MT",No depolymerization was observed in the absence of ATP (track 4)
